Measurements from PMC10138348, “Continuous Fluorescent Sirtuin Activity Assay Based on Fatty Acylated Lysines” (International Journal of Molecular Sciences, 2023).

Target: F4, TNFα-derived peptide with a myristoylated lysine and fluorescein-labelled cysteine in the +2 position
Experiment: fluorescence polarisation; SIRT2 in serial dilution from 1.6 µM, F4 10 nM, no NAD+, BSA from zero to 300 µM; 384-well plate, 20 mM Tris-HCl pH 7.8, 150 mM NaCl, 5 mM MgCl2; three independent replicates

- Kd: 0.007 to 0.018 µM
B1: SIRT2 (enzyme)
chain: MAEPDPSHPLETQAGKVQEAQDSDSDSEGGAAGGEADMDFLRNLFSQTLSLGSQKERLLDELTLEGVARYMQSERCRRVICLVGAGISTSAGIPDFRSPSTGLYDNLEKYHLPYPEAIFEISYFKKHPEPFFALAKELYPGQFKPTICHYFMRLLKDKGLLLRCYTQNIDTLERIAGLEQEDLVEAHGTFYTSHCVSASCRHEYPLSWMKEKIFSEVTPKCEDCQSLVKPDIVFFGESLPARFFSCMQSDFLKVDLLLVMGTSLQVQPFASLISKAPLSTPRLLINKEKAGQSDPFLGMIMGLGGGMDFDSKKAYRDVAWLGECDQGCLALAELLGWKKELEDLVRREHASIDAQSGAGVPNPSTSASPKKSPPPAKDEARTTEREKPQ
